Experiment [1] has as its target T1, biotinylated goat anti-human kappa light chain.
T1 construct: positive control of the ELISA
Put plainly: ELISA, positive control. The gist of the method: (§1)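 Monoclonal antibodies were first applied to human or mouse ACVR2A, alongside biotinylated goat anti-human kappa light chain (positive control) and human Fc (negative control); binding was then determined by ELISA.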

Another experiment deals with T2, mouse ACVR2A (mouse, UniProt P27038 20-135, limits assumed).
T2 construct: coated antigen of the initial ELISA
Put plainly: ELISA. The gist of the method: as §1

The target in a further experiment is T3, human ACVR2A (human, UniProt P27037 20-135, limits assumed).
T3 construct: coated antigen of the initial ELISA; also called activin receptor, type II A
Put plainly: ELISA. The gist of the method: as §1
Note: test concentration or dose not given here.

T2 sequence (P27038 20-135 limits assumed): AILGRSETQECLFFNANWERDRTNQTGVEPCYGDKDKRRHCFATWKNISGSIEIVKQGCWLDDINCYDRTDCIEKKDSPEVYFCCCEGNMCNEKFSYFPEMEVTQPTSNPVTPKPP
T3 sequence (P27037 20-135 limits assumed): as the sequence (P27038 20-135 limits assumed) above, with R20K, I73V counted along it

B1: 375_A07 (antibody, V domains shown)
VH: EVQLLESGGGLVQPGGSLRLSCAASGFTFDSYSMNWVRQAPGKGLEWVSSINYNSGYTGYADSVKGRFTISRDNSKNTLYLQMNSLRAEDTAVYYCARGANWHDTHLDYWGQGTLVTVSS
VL: DIQMTQSPSSLSASVGDRVTITCRASQSILTYLNWYQQKPGKAPKLLIYAATSRASGVPSRFSGSGSGTDFTLTISSLQPEDFATYYCQQSYDTPLTFGGGTKVEIK
notes: Group III
As for B1, the values for the optical density (in experiment [1]; with mouse ACVR2A; with human ACVR2A) were 3.11 OD, 3.64 OD and 3.58 OD, respectively.

B2: 375_D01 (antibody, V domains shown)
VH: EVQLLESGGGLVQPGGSLRLSCAASGFTFSSYSMNWVRQAPGKGLEWVSGINYNGGYTGYADSVKGRFTISRDNSKNTLYLQMNSLRAEDTAVYYCARGANWHDTALDYWGQGTLVTVSS
VL: DIQMTQSPSSLSASVGDRVTITCRASQSILTYLNWYQQKPGKAPKLVIYAATSRASGVPSRFSGSGSGTDFTLTISSLQPEDFATYYCQQSYETPLTFGGGTKVEIK
notes: Group III
For B2, the optical density in experiment [1] was 3.1 OD; with mouse ACVR2A, 3.61 OD; in the experiment with human ACVR2A, 3.3 OD.

B3: 375_F07 (antibody, V domains shown)
VH: EVQLLESGGGLVQPGGSLRLSCAASGFTFSDYSMNWVRQAPGKGLEWVSNINYNGGYTGYADSVKGRFTISRDNSKNTLYLQMNSLRAEDTAVYYCARGANWHDTALDYWGQGTLVTVSS
VL: DIQMTQSPSSLSASVGDRVTITCRASQSILSYLNWYQQKPGKAPKLLIYAATSRASGVPSRFSGSGSGTDFTLTISSLQPEDFATYYCQQSYDSPLTFGGGTKVEIK
notes: Group III
In the case of B3, the optical density in experiment [1] came to 3.22 OD; in the experiment with mouse ACVR2A, 3.71 OD; with human ACVR2A, 3.67 OD.

B4: 375_E03 (antibody, V domains shown)
VH: EVQLLESGGGLVQPGGSLRLSCAASGFTFSDYSMNWVRQAPGKGLEWVANINYNGGYTGYADSVKGRFTISRDNSKNTLYLQMNSLRAEDTAVYYCARGANWHDTHLDYWGQGTLVTVSS
VL: DIQMTQSPSSLSASVGDRVTITCRASQSILTYLNWYQQKPGKAPKLVIYAATSLASGVPSRFSGSGSGTDFTLTISSLQPEDFATYYCQQSYDNPLTFGGGTKVEIK
notes: Group III
Regarding B4, the optical density in experiment [1] came out at 3.18 OD; with mouse ACVR2A, 3.64 OD; in the experiment with human ACVR2A, 3.57 OD.

B5: 375_F02 (antibody, V domains shown)
VH: EVQLLESGGGLVQPGGSLRLSCAASGFTFSSYSMNWVRQAPGKGLEWVASINYNSGYTSYADSVKGRFTISRDNSKNTLYLQMNSLRAEDTAVYYCARGANWHDTHLDYWGQGTLVTVSS
VL: DIQMTQSPSSLSASVGDRVTITCRASQSILSYLNWYQQKPGKAPKLLIYAATSRASGVPSRFSGSGSGTDFTLTISSLQPEDFATYYCQQSYDSPLTFGGGTKVEIK
notes: Group III
As to B5, the values for the optical density (in experiment [1]; with mouse ACVR2A; with human ACVR2A) were 3.2 OD, 3.65 OD and 3.6 OD, respectively.

B6: 375_G05 (antibody, V domains shown)
VH: EVQLLESGGGLVQPGGSLRLSCAASGFTFSSYSMNWVRQAPGKGLEWVAGINYNGGYTSYADSVKGRFTISRDNSKNTLYLQMNSLRAEDTAVYYCARGANWHDTALDYWGQGTLVTVSS
VL: DIQMTQSPSSLSASVGDRVTITCRASQSIVSYLNWYQQKPGKAPKLLIYAVTSRASGVPSRFSGSGSGTDFTLTISSLQPEDFATYYCQQSYDSPLTFGGGTKVEIK
notes: Group III
As for B6, the optical density in experiment [1] stood at 3.26 OD; with mouse ACVR2A, 3.75 OD; with human ACVR2A, 3.71 OD.

B7: 375_E06 (antibody, V domains shown)
VH: EVQLLESGGGLVQPGGSLRLSCAASGFTFSSYSMNWVRQAPGKGLEWVSGINYNGGYKSYADSVKGRFTISRDNSKNTLYLQMNSLRAEDTAVYYCARGANWHDTALDYWGQGTLVTVSS
VL: DIQMTQSPSSLSASVGDRVTITCRASQSILSYLNWYQQKPGKAPKLVIYAATSRASGVPSRFSGSGSGTDFTLTISSLQPEDFATYYCQQSYDSPLTFGGGTKVEIK
notes: Group III
Take B7: the values for the optical density (in experiment [1]; in the experiment with mouse ACVR2A; with human ACVR2A) were 3.33 OD, 3.67 OD and 3.85 OD, respectively.

B8: 375_A08 (antibody, V domains shown)
VH: EVQLLESGGGLVQPGGSLRLSCAASGFTFSSYSMNWVRQAPGKGLEWVAGINYNGGYTGYADSVKGRFTISRDNSKNTLYLQMNSLRAEDTAVYYCARGANWHDTALDYWGQGTLVTVSS
VL: DIQMTQSPSSLSASVGDRVTITCRASQSIVTYLNWYQQKPGKAPKLLIYAATSRASGVPSRFSGSGSGTDFTLTISSLQPEDFATYYCQQSYESPLTFGGGTKVEIK
notes: Group III
Turning to B8, the optical density worked out at 3.14 OD in experiment [1], 3.69 OD in the experiment with mouse ACVR2A and 3.68 OD with human ACVR2A.

B9: 375_D10 (antibody, V domains shown)
VH: EVQLLESGGGLVQPGGSLRLSCAASGFTFSSYSMNWVRQAPGKGLEWVAGINYNGGYTSYADSVKGRFTISRDNSKNTLYLQMNSLRAEDTAVYYCARGANWHDTALDYWGQGTLVTVSS
VL: DIQMTQSPSSLSASVGDRVTITCRASQSILTYVNWYQQKPGKAPKLLIYAATSRASGVPSRFSGSGSGTDFTLTISSLQPEDFATYYCQQSDDSPLTFGGGTKVEIK
notes: Group III
With B9, the optical density in experiment [1] came out at 3.21 OD; with mouse ACVR2A, 3.45 OD; with human ACVR2A it was 3.26 OD.

B10: 375_C04 (antibody, V domains shown)
VH: EVQLLESGGGLVQPGGSLRLSCAASGFTFSDYSMNWVRQAPGKGLEWVAGINYNGGYTSYADSVKGRFTISRDNSKNTLYLQMNSLRAEDTAVYYCARGANWHDTALDYWGQGTLVTVSS
VL: DIQMTQSPSSLSASVGDRVTITCRASQSILTYLNWYQQKPGKAPKLVIYAATSRASGVPSRFSGSGSGTDFTLTISSLQPEDFATYYCQQSYESPLTFGGGTKVEIK
notes: Group III
Turning to B10, the optical density in experiment [1] is 3.21 OD; with mouse ACVR2A it was 3.67 OD; with human ACVR2A, 3.68 OD.

B11: 375_E05 (antibody, V domains shown)
VH: EVQLLESGGGLVQPGGSLRLSCAASGFTFSSYSMNWVRQAPGKGLEWVAGINYNGGYTSYADSVKGRFTISRDNSKNTLYLQMNSLRAEDTAVYYCARGANWHDTALDYWGQGTLVTVSS
VL: DIQMTQSPSSLSASVGDRVTITCRASQSILSYLNWYQQKPGKAPKLVIYAATSLASGVPSRFSGSGSGTDFTLTISSLQPEDFATYYCQQSYSSPLTFGGGTKVEIK
notes: Group III
Regarding B11, the optical density in experiment [1] was determined as 3.28 OD; in the experiment with mouse ACVR2A, 3.71 OD; with human ACVR2A, 3.67 OD.

B12: 375_H05 (antibody, V domains shown)
VH: EVQLLESGGGLVQPGGSLRLSCAASGFTFSSYSMNWVRQAPGKGLEWVSNINYNGGYTGYADSVKGRFTISRDNSKNTLYLQMNSLRAEDTAVYYCARGANWHDTALDYWGQGTLVTVSS
VL: DIQMTQSPSSLSASVGDRVTITCRASQSILSYVNWYQQKPGKAPKLLIYAATSRASGVPSRFSGSGSGTDFTLTISSLQPEDFATYYCQQSYDTPLTFGGGTKVEIK
notes: Group III
Regarding B12, the optical density in experiment [1] stood at 3.17 OD; with mouse ACVR2A it was 3.33 OD; with human ACVR2A, 3.35 OD.

B13: 375_B12 (antibody, V domains shown)
VH: EVQLLESGGGLVQPGGSLRLSCAASGFTFDSYSMNWVRQAPGKGLEWVAGINYNGGYKSYADSVKGRFTISRDNSKNTLYLQMNSLRAEDTAVYYCARGANWHDTALDYWGQGTLVTVSS
VL: DIQMTQSPSSLSASVGDRVTITCRASQSIVTYLNWYQQKPGKAPKLLIYAATSRASGVPSRFSGSGSGTDFTLTISSLQPEDFATYYCQQSYDTPLTFGGGTKVEIK
notes: Group III
In the case of B13, the optical density was 3.28 OD in experiment [1], 3.34 OD in the experiment with mouse ACVR2A and 3.65 OD with human ACVR2A.

B14: 375_G04 (antibody, V domains shown)
VH: EVQLLESGGGLVQPGGSLRLSCAASGFTFSSYGMNWVRQAPGKGLEWVASINYNSGYTGYADSVKGRFTISRDNSKNTLYLQMNSLRAEDTAVYYCARGANWHDTHLDYWGQGTLVTVSS
VL: DIQMTQSPSSLSASVGDRVTITCRASQSIVSYVNWYQQKPGKAPKLLIYAATSLASGVPSRFSGSGSGTDFTLTISSLQPEDFATYYCQQSYDSPLTFGGGTKVEIK
notes: Group III
With B14, the optical density in experiment [1] was 3.19 OD; with mouse ACVR2A it was 3.29 OD; with human ACVR2A it was 2.91 OD.

B15: 375_F08 (antibody, V domains shown)
VH: EVQLLESGGGLVQPGGSLRLSCAASGFTFSSYGMNWVRQAPGKGLEWVSSINYNSGYKSYADSVKGRFTISRDNSKNTLYLQMNSLRAEDTAVYYCARGANWHDTHLDYWGQGTLVTVSS
VL: DIQMTQSPSSLSASVGDRVTITCRASQSILSYLNWYQQKPGKAPKLLIYAATSRHSGVPSRFSGSGSGTDFTLTISSLQPEDFATYYCQQSYDNPLTFGGGTKVEIK
notes: Group III
Consider B15, for which the values for the optical density (in experiment [1]; with mouse ACVR2A; with human ACVR2A) were 3.31 OD, 3.58 OD and 3.5 OD, respectively.

B16: 375_A12 (antibody, V domains shown)
VH: EVQLLESGGGLVQPGGSLRLSCAASGFTFSSYSMNWVRQAPGKGLEWVSGINYNSGYKSYADSVKGRFTISRDNSKNTLYLQMNSLRAEDTAVYYCARGANWHDTALDYWGQGTLVTVSS
VL: DIQMTQSPSSLSASVGDRVTITCRASQSILSYLNWYQQKPGKAPKLVIYAVTSRASGVPSRFSGSGSGTDFTLTISSLQPEDFATYYCQQSYETPLTFGGGTKVEIK
notes: Group III
Turning to B16, the optical density in experiment [1] came to 3.14 OD; with mouse ACVR2A, 3.35 OD; in the experiment with human ACVR2A it was 3.66 OD.

B17: 375_E02 (antibody, V domains shown)
VH: EVQLLESGGGLVQPGGSLRLSCAASGFTFSDYSMNWVRQAPGKGLEWVAGINYNGGYTSYADSVKGRFTISRDNSKNTLYLQMNSLRAEDTAVYYCARGANWHDTALDYWGQGTLVTVSS
VL: DIQMTQSPSSLSASVGDRVTITCRASQSILTYLNWYQQKPGKAPKLLIYAATSRASGVPSRFSGSGSGTDFTLTISSLQPEDFATYYCQQSYSSPLTFGGGTKVEIK
notes: Group III
With B17, the optical density in experiment [1] was determined as 3.2 OD; with mouse ACVR2A it was 3.69 OD; with human ACVR2A, 3.58 OD.

Values taken from patent US20210380703A1 (RIGEL PHARMACEUTICALS, published 2021).
